Measurements reported in patent publication US20150231240A1, “ANTI-C16ORF54 ANTIBODIES AND METHODS OF USE THEREOF” (priority 2012, published 2015).

Assays:
[1] = tested on: KG-1 (acute myeloid leukemia) xenograft; format: in vivo, NOD-SCID mice; details: Table 44; dose not given; KG-1 AML model
Experimental: Subcutaneous tumors are generated by injection of 1×10^7 cancer cells in a mixture of PBS (without magnesium or calcium) and BD Matrigel™ (BD Biosciences) at a 1:1 ratio in the right flank of female SCID or nu^−/− mice. The injected total volume per mouse is […] with 50% being Matrigel (BD Biosciences). Mice are randomized once tumors reach a size between 65-200 mm^3. Antibodies are administered weekly, and body weights and tumors are measured once and twice weekly, respectively. Tumor volume is calculated as described (van der Horst et al. (2009) Neoplasia 11: 355-364). As a negative control, mice are injected with either purified mouse IgG or PBS; or a purified monoclonal antibody that recognizes an antigen other than C16orf54.
Anti-C16orf54 antibodies were tested for their anti-tumor activity in an animal-tumor model. For these studies, the cell line KG-1 (acute myeloid leukemia) was obtained from ATCC and cultured according to the suppliers' protocols. Animals were obtained from Taconic (Hudson, N.Y.). Studies were conducted with anti-C16orf54 antibodies and antibody-drug conjugates (ADCs) of these antibodies.
In these experiments, 4-6 week-old immunodeficient NOD-SCID female mice were used for the KG-1 tumor model. Mice were subcutaneously injected on the right flank with 6×10^6 viable cells (KG-1) in a mixture of PBS (without magnesium or calcium) and BD Matrigel™ (BD Biosciences). Once the tumor reached a size between 65-200 mm^3 mice were randomized. Anti-C16orf54 antibodies were administered weekly, and bodyweights and tumors were measured once and twice weekly, respectively. Tumor volume was calculated as described (van der Horst et al., supra). Experiments were performed on groups of at least eight animals per experimental point.
Statistical significance between treatment and control groups was calculated using the Graphpad Prism® software package and applying Student's two-tailed t-test. A p-value of less than 0.05 was considered significant.

[2] = molecular target: T1, human C16orf54 (human, UniProt Q6UWD8 1-224); experiment: cell-based or functional assay
T1 construct: also called huC16orf54; hC16orf54
T1 sequence: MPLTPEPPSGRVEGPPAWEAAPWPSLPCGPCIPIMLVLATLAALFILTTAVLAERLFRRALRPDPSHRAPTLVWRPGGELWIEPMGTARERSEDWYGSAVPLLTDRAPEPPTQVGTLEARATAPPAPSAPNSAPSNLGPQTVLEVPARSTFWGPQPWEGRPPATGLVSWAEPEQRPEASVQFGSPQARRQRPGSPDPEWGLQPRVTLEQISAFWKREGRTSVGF

[3] = molecular target: T2, cynomolgus monkey C16orf54 (cynomolgus monkey (Macaca fascicularis), UniProt Q6UWD8 1-224 (human entry)); experiment: flow cytometry, 10 ug/ml antibody, F279-cyno-C16orf54 cells
T2 construct: also called cyno C16orf54; cyno-C16orf54
T2 chain: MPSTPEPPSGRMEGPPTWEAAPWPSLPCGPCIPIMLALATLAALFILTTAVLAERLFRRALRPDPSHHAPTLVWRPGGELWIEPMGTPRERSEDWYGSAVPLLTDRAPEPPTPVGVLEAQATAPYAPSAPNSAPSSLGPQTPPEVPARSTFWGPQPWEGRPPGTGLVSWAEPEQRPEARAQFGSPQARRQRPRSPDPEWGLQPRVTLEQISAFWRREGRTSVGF
Experimental: (§1) Anti-C16orf54 antibodies which bound to human C16orf54 were tested for their reactivity with human C16orf54 and their crossreactivity with C16orf54 from cynomolgous monkeys (cyno C16orf54) using flow cytometry. Sarcoma cells transfected with and expressing human C16orf54 or cyno C16orf54 were washed with PBS with 0.1% BSA, incubated with FcX receptor blocking solution (BioLegend) for 15 minutes, incubated with 10 μg/ml of anti-C16orf54 antibody for 1 hour at 4° C., washed twice with PBS with 0.1% BSA, incubated with 20 μg/ml of R-Phycoerythrin-AffiniPure F(ab′)2 Fragment Goat Anti-Mouse IgG, Fcγ Fragment Specific (Jackson ImmunoResearch) for 30 minutes at 4° C., washed twice with PBS with 0.1% BSA, incubated with the viability dye TO-PRO-3 iodide (Life Technologies), and immediately analyzed on a MACSQuant Analyzer instrument (Miltenyi). For each cell line and anti-C16orf54 antibody, a fold change was derived by dividing the median fluorescence intensity for Phycoerythrin in the live cell population for the anti-C16orf54 antibody by the median fluorescence intensity for Phycoerythrin in the live cell population for the IgG isotype control antibody. A number of anti-C16orf54 antibodies (see, e.g., R29-8-57B, R29-8-136C, R29-7-1C, R29-67-7A, R29-67-4A, and R29-7-2A) bind human C16orf54 and also bind (e.g., are crossreactive with) cyno C16orf54.

[4] = molecular target: T1, human C16orf54; experiment: flow cytometry titration, KG1 cells (endogenous human C16orf54)
[5] = molecular target: T1, human C16orf54; experiment: flow cytometry, 10 ug/ml antibody, D42M1-huC16orf54 cells
Experimental: as §1

O=P1(N(CCCl)CCCl)NCCCO1 (stereo not drawn) [Cyclophosphamide]
TGI [1]: −42%
Volume [1]: 1580 mm^3

B1: R29-7-1C-mcMMAF (protein)
VH: DVQLQESGPGLVKPSQSLSLTCTVTGYSITSDYAWNWIRQFPGNKLEWMGYISYSGSIRYNPSLKSRISITRDTSKNQFFLQLNSVTTEDTATYYCAREKYDNYYYAMDYWGQGTSVTVSS
VL: DIVMSQSPSSLAVSVGEKVTLSCKSSQNLLYSTNQKNYLAWYQQKPGQSPKLLIYWASTRESGVPDRFTGSGSGTDFTLTISSVKAEDLAVYYCQQYYSYRTFGGGTKLEIK
modifications: maleimidocaproyl-monomethylauristatin F (MC-MMAF) on reduced cysteine thiols of the antibody; positions not given
IC50 nM, cell viability, C16orf54 expressing sarcoma line 2, 72 hours [2]: 0.2 nM
IC50 (nM), cell viability, C16orf54 expressing Sarcoma line 1, 72 hours [2]: 0.1 nM

B2: R29-67-7A mcMMAF (protein)
VH: DVQLQESGPGLVKPSQSLSLTCTVTGYSITSDYAWNWIRQFPGNKLEWMGYINYSGRTRYNPSLNSRISLTRDTSTNQFFLQLNSVTTEDTATYYCARENYDYEFYAMDYWGQGTSVTVSS
VL: DIVMSQSPSSLAVSVGEKVTMSCKSSQNLLYSSNQKNYLAWYQQKPGQSPKLLIYWASTRESGVPDRFTGSGSGTDFTLTISSVKAEDLAVYYCQQYYIYRTFGGGTKLEIK
modifications: maleimidocaproyl-monomethylauristatin F (MC-MMAF) on reduced cysteine thiols of the antibody; positions not given
IC50 nM, cell viability, C16orf54 expressing sarcoma line 2, 72 hours [2]: 0.1 nM
IC50 (nM), cell viability, C16orf54 expressing Sarcoma line 1, 72 hours [2]: 0.1 nM

B3: R29-8-57B mcMMAF (protein)
VH: DVQLQESGPGLVKPSQSLSLTCTVTGYSITSDYAWNWIRQFPGNKLEWMGYINYSGSTRYNPSLKSRISITRDTSKNHFFLQLNSVTPEDTATYHCARERYDGVYYGMDYWGQGTSVTVSS
VL: DIVMSQSPSSLAVSVGEKVTMSCKSSQSLLYSSNQKNYLAWYQQKPGQSPKLLIYWASTRESGVPDRFTGSGSGTDFTLTISSVKTEDLAVYYCQQYYSYRTFGGGTKLEIK
modifications: maleimidocaproyl-monomethylauristatin F (MC-MMAF) on reduced cysteine thiols of the antibody; positions not given
IC50 nM, cell viability, C16orf54 expressing sarcoma line 2, 72 hours [2]: 0.1 nM
IC50 (nM), cell viability, C16orf54 expressing Sarcoma line 1, 72 hours [2]: 0.2 nM

B4: R29-8-50C (antibody, V domains shown)
VH: EVKLVESGGGLVKPGGSLKFSCAASGFTFSSYAVSWVRQTPEKRLEWVASITSGGRTYYPDSVKGRFTISRDNARSMLYLHMSSLRSEDTAMYYCTRGWDENDLWGQGTTLTVSS
VL: DVVMTQTPLSLPVSLGDQASISCRSSQSLVYSNGNTYLHWYLQRPGQSPQLLIYKVSNRFSGVPDRFSGSGSGTDFTLKISRVEAEDLGVYFCSQTTHVPWTFGGGTKLEIK
notes: Murine monoclonal antibody from a hybridoma
Median fold change relative to IgG control [3]: 3.2 fold
EC50 [4]: 0.7 nM
Median fold change relative to IgG control [5]: 159 fold

B5: R29-8-12A (antibody, V domains shown)
VH: EVKLVESGGGLVKPGGSLKFSCAASGFTFSSYAVSWVRQTPEKRLEWVASITSGGRTYYPDSVKGRFTISRDNARSMLYLHMSSLRSEDTAMYYCTRGWDENDLWGQGTTLTVSS
VL: DVVMTQTPLSLPVSLGDQASISCRSSQSLVYSNGNTYLHWYLQKPGQSPQLLIYKVSNRFSGVPDRFSGSGSGTDFTLKISRVEAEDLGVYFCSQTTHVPWTFGGGTKLEIK
notes: as for B4
Median fold change relative to IgG control [3]: 3.6 fold
EC50 [4]: 1.1 nM
Median fold change relative to IgG control [5]: 193 fold

B6: R29-8-36C (antibody, V domains shown)
VH: EVKLVESGGGLVKPGGSLKFSCAASGFTFSSYAVSWVRQTPEKRLEWVASITSGGRSYYPDSVKGRFTISRDNARSMLYLHMSSLRSEDTAMYYCTRGWDENDLWGQGTTLTVSS
VL: DVVMTQTPLSLFVSLGDQASISCRSSQSLLYSNGNTYLHWYLQRPGQSPQLLIYKVSNRFSGVPDRFSGSGSGTDFTLKISRVEAEDLGVYFCSQTTHVPWTFGGGTKLEIK
notes: as for B4
Median fold change relative to IgG control [3]: 3.6 fold
EC50 [4]: 0.6 nM
Median fold change relative to IgG control [5]: 184 fold

B7: R29-7A-53A (antibody, V domains shown)
VH: QVQLKESGPGLVAPSQSLSITCTVSGFSLTDYAISWIRQPPGKGLEWLGVIWGGGRTYSNSALKSRLSISKDNSRSQIFLKMNSLQTDDTAMYYCAKHEEVSRFAYWGQGTLVTVSV
VL: DVVLTQTPLSLPVSLGDQASISCRSSQSLVYSNGNSYLHWYLQKPGQSPKLLIYKVSNRFSGVPDRFSGSGSGTDFTLKITRVEAEDLGVYFCSQSTHIPLTFGAGTKLELK
notes: Murine monoclonal antibody from a hybridoma; also called R29-7-53A
Median fold change relative to IgG control [3]: 1.2 fold
Median fold change relative to IgG control [5]: 5.7 fold

B8: R29-7A-54C (antibody, V domains shown)
VH: QVQLKESGPGLVAPSQSLSITCTVSGFSLTDYAISWIRQPPGKGLEWLGVIWGGGRTYSNSALKSRLSISKDNSRSQIFLKMNSLQTDDTAMYYCAKHEEVSRFAYWGQGTLVTVSV
VL: DVVLTQTPLSLPVSLGDQASISCRSSQSLVYSNGNSYLHWYLQKPGQSPKLLIYKVSNRFSGVPDRFSGSGSGTDFTLKITRVEAEDLGVYFCSQSTHIPLTFGAGTKLELK
notes: Murine monoclonal antibody from a hybridoma; also called R29-7-54C
Median fold change relative to IgG control [3]: 1 fold
Median fold change relative to IgG control [5]: 12.1 fold

B9: R29-8-9B (antibody, V domains shown)
VH: EVKLVESGGGVVKPGGSLKLSCAASGFTFSSYAMSWFRQTSEMSLEWVASITGGGGTYYPDSVKGRFTISRDTVRNILYLQMRSLRSGDTAIYYCARGWDENDYWGQGTTLTVSS
VL: DVVMTQIPLSLPVSLGDQASISCRSSQSLVFSNGNTYLHWYFQKPGQSPKLLIYKVSNRFSGVPDRFSGSGSGTDFILRISRVEAEDLGVYFCSQSTHVPWTFGGGTKLEIK
notes: as for B4
Median fold change relative to IgG control [3]: 2 fold
EC50 [4]: 1.5 nM
Median fold change relative to IgG control [5]: 194 fold

B10: R29-8-120B (antibody, V domains shown)
VH: KVNLVESGGGLVKAGGSLKLSCAASGFTFSIYAMSWFRQTPEKRLEWVASITGGGTNFYPDSVRGRFTISRDNVRNILYLQMSSLRSEDTAMYYCARGWDENDYWGQGTTLTVSS
VL: DVVMTQTPLSLPVSLGDQASISCRSSQSLVYSNGNTYLHWYLQKPGQSPKLLIYKVSNRFSGVPDRFSGSGSGTDFTLKISRVEAEDLGVYFCSQSTHVPWTFGGGTKLEIK
notes: as for B4
Median fold change relative to IgG control [3]: 5.2 fold
EC50 [4]: 2.6 nM
Median fold change relative to IgG control [5]: 106 fold

B11: R29-8-28C (antibody, V domains shown)
VH: EVKLVESGGGVVKPGGSLTLSCAASGFTFSNYAVSWFRQTPEKRLEWVASITSGGRTYYPDSMKGRFTISRDNARNILYLQMSSLRSEDTAIYYCGRGWDENDYWGQGTTLTVSS
VL: DVVMTQTPLSLPVSLGDQASISCRSSQSLVYSNGNTYLHWYLQKPGQSPKLLIYKVSNRFSGVPDRFSGSGSGTDFTLKINRVEAEDLGVYFCSQTTHVPWTFGGGTKLEIK
notes: as for B4
Median fold change relative to IgG control [3]: 3.3 fold
EC50 [4]: 2.1 nM
Median fold change relative to IgG control [5]: 156 fold

B12: R29-8-19B (antibody, V domains shown)
VH: EVKLVESGGGLVKPGGSLKFSCAASGFTFSSYAVSWVRQTPEKRLEWVASITSGGRTYYPDSVKGRFTISRDNARSMLYLHMSSLRSEDTAMYYCTRGWDENDLWGQGTTLTVSS
VL: DVVMTQTPLSLPVSLGDQASISCRSSQSLVYSNGNTYLHWYLQKPGQSPQLLIYKVSNRFSGVPDRFSGSGSGTDFTLKISRVEAEDLGVYFCSQTTHVPWTFGGGTKLEIK
notes: as for B4
Median fold change relative to IgG control [3]: 4.5 fold
EC50 [4]: 0.9 nM
Median fold change relative to IgG control [5]: 198 fold
